Reference: patent publication US10806804B2, “Compounds having RD targeting motifs and methods of use thereof” (Washington University, priority 2015, dated 2020)
Positions of bridges follow the written chain, without caps; N, C: chain ends. Non-standard residues stand in square brackets, D forms with d. Residues, ends and D or L forms follow the SMILES beside them. Primed or numbered codes have the meaning given here. *: point of attachment. Cypate = CC1(C)C(/C=C/C=C/C=C/C=C2/N(CCC(=O)*)c3ccc4ccccc4c3C2(C)C)=[N+](CCC(=O)O)c2ccc3ccccc3c21; Cypate′ = not defined here

Tests used:
[1] = tested on: 4T1 luc; test: in vivo tumor targeting / fluorescence imaging of probes compared with LS301; design: species or system Balb/c; details: Tyr adjacent to the cypate
Description: FIG. 5 depicts images showing LS838 for fluorescence and nuclear (PET and or SPECT) imaging. 4T1 luc in Balb/c; 100 μl of 50 μM LS838.
FIG. 6 depicts the distribution of LS838 in tissue at 24 hours.
A variety of probes which have similar sequence compared to LS301 were designed and prepared (Table 1). The probes have different peptide sequences, D-, L-amino acid variations or different groups on C-terminus. The sequences of the probes were tested by LC-MS and the spectroscopy properties were recorded. The performances of the tumor targeting abilities were also tested in vivo. […] It was unexpected that LS838 would be brighter relative to LS301 and it is unknown to us why it does. However, the enhanced brightness allows the use of smaller amounts of material to achieve the same uptake kinetics and accumulation as LS301. FIG. 5 depicts the accumulation of LS838 in vivo and FIG. 6 graphically quantifies the intensity of LS838 in various organs. […] LS838 labeled can be labeled with radionuclides such as radio-iodine, bromine, or fluorine for combined optical and nuclear imaging.

[2] = biological target: T1, albumin (Homo sapiens, UniProt P02768); details: carbocyanine dyes, previous study; cited from earlier work
T1 sequence (P02768 25-609, species assumed): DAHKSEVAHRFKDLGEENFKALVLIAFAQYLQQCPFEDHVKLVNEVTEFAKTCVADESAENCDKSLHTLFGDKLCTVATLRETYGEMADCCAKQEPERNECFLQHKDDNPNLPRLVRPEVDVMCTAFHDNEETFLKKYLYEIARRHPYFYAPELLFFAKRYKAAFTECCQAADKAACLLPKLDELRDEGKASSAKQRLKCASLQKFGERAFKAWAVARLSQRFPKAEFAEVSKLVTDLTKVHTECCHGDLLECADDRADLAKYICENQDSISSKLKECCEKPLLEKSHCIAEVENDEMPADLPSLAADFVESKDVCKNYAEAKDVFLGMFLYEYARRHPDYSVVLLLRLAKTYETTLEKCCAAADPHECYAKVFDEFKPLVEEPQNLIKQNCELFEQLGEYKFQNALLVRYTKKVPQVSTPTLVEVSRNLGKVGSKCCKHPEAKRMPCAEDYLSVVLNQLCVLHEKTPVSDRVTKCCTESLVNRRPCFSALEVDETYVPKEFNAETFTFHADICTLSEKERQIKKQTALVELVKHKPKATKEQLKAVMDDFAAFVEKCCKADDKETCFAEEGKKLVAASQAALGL

[3] = tested on: PDAC; design: species or system mice; details: mouse, in vivo
Excerpt: To overcome this problem, the use of peptides as a tumor-trapping mechanism was explored. The highly reducing environment of tumor cells is known to reduce disulfide bonds to thiols, which can trans-thiolate with cysteine-containing intracellular proteins to trap the molecular probe. Therefore, a variety of disulfide-containing peptides were conjugated to cypate and the compounds were screened in mice with advanced stage PDAC. […] Replacement of the D-Cysteine with the natural L-Cysteine residue abrogates this retention.

[4] = biological target: T1, albumin; test: binding of carbocyanine dyes and LS838 to albumin (binding constant K)
Excerpt: The hypothesis is that the binding of cypate to albumin facilitates the internalization of LS838 in PDAC/PanIN lesions. In a previous study, the binding of some carbocyanine dyes to albumin was compared. […] It was also shown that conjugation of peptides to the dyes decreases the K by a factor of ˜10. Using the same method, we determined the K value of LS838 to be 86,000 M^−1.

[5] = in vivo
Excerpt: While this is not a problem in the proposed laparoscopy, the excretion route to the kidneys can be altered by conjugating positively charged moieties (—^+NMe3) or nonionic groups (e.g. PEG) to the free carboxylic acid group of cypate. […] In the unlikely event that the cyanine dyes are photo-unstable, they will be replaced with NIR pyrrolopyrrole cyanine dyes (PPCy), which are highly photostable and have exceptionally high fluorescence quantum yields (up to 80%).

[6] = tested on: pancreas tumor cells; details: in vivo
[7] = tested on: tumor cells; test: NIR fluorescence microscopy of uptake and trafficking in cells; format: cell-based; details: dye alone
Description: FIG. 8A and FIG. 8B depict uptake of LS838 in 4T1 luc cells showing internalization of the probe in the cells at 1 h (FIG. 8A) and 4 h (FIG. 8B) post incubation. Most cells show localization in the lysosomes at early time points, but the punctate fluorescence became more diffuse at 24 h, indicating translocation to the cytosol. Uptake in the mitochondria was negligible. Color scheme: cyan, Mitotracker; green, lysotracker; and red, LS838. (FIG. 8C) Internalization of LS838 in cells was inhibited by Filipinin, an inhibitor of albumin endocytosis via the gp60 pathway. A similar inhibition was observed when Alexa-680 dye labeled albumin (BSA; blue) was mixed with LS838.
At early time points, LS838 is largely in the lysosomes, but it translocates to the cytosol in a time-dependent manner. […]
Aggresomes are microtubule-catalyzed aggregates of […] that are used to degrade particularly stable and aggregated proteins. […] It will be evaluated if tumors have a lower ability to form aggresomes because of microtubule dysfunction, leading to prolonged retention in tumor cells compared to normal cells. If LS838 induces aggresome formation in tumor cells, but not fibroblasts will first be determined. […] It will also be determined if aggresomes form in vivo using a literature method. […] Aggresome formation will be determined by staining muscle, skin, and tumors for anti-ubiquitin protein. […]

[8] = tested on: PDAC; test: in vivo uptake/contrast in PDAC relative to uninvolved pancreas
Excerpt: A similar trend is observed in vivo, where preferential uptake in PDAC relative to uninvolved pancreas is […]. […] Permutation of the arginine-aspartic acid sequence results in a loss of PDAC-selective uptake. It has been shown that cypate binds to the hydrophobic pockets of albumin, irrespective of the source (human, murine, or bovine). […] Thus, the primary goal of this study is to determine the role of the peptide in tumor cell internalization or retention. Based on preliminary data, this question can be addressed by preparing the following cypate-labeled peptides (underlined amino acids are changes made to LS838): […]

With “Tyr-Cypate-Cyclo(DCys-Gly-Arg-Asp-Ser-Pro-Cys)-Lys-NH2 ({Tyr-Cypate′}-[dC]GRDSPCK-NH2; disulfide 1-7 (inferred)) [LS758]” as the compound, how does the “retention in tumors after in vivo administration” value [1] read?
Its value is “rapid loss of retention in tumors”.

For `CC1(C)C(/C=C/C=C/C=C/C=C2\N(CCCCS(=O)(=O)O)c3ccc4ccccc4c3C2(C)C)=[N+](CCCCS(=O)(=O)[O-])c2ccc3ccccc3c21` [ICG, indocyanine green], which “binding constant (K) to albumin” value [2] is on record?
The value was 554,000 M^−1.

For `CC1(C)C(/C=C/C=C/C=C/C=C2/N(CCC(=O)N[C@@H]3CSSC[C@@H](C(=O)N[C@@H](Cc4ccc(O)cc4)C(=O)O)NC(=O)[C@@H]4CCCN4C(=O)[C@H](CO)NC(=O)[C@H](CC(=O)O)NC(=O)[C@H](CCCNC(=N)N)NC(=O)CNC3=O)c3ccc4ccccc4c3C2(C)C)=[N+](CCC(=O)O)c2ccc3ccccc3c21` [LS838, Cypate-Cyclo(DCys-Gly-Arg-Asp-Ser-Pro-Cys)-Tyr-OH] (Cypate-[dC]GRDSPCY-OH; disulfide 1-7), which “selective retention in tumors (duration)” value [3] is on record?
The value was “over 48 h”.

And the Kd [4]?
The Kd was 11.6 µM.

What about the clearance route [5] of the same compound?
Its clearance route is “clears through the liver”.

What about the “time remaining primarily in the tumor cells relative to non-tumor cells” value [6] of the same compound?
The value was “up to 100 h”.

And the “time to internalization in the pancreas” value [6]?
Its value is ≤ 1 h.

Which “retention in tumors after in vivo administration” value [1] does the source give for `CC1(C)C(/C=C/C=C/C=C/C=C2/N(CCC(=O)N[C@@H](Cc3ccc(O)cc3)C(=O)N[C@@H]3CSSC[C@@H](C(=O)N[C@@H](CCCCN)C(=O)O)NC(=O)[C@@H]4CCCN4C(=O)[C@H](CO)NC(=O)[C@H](CC(=O)O)NC(=O)[C@H](CCCNC(=N)N)NC(=O)CNC3=O)c3ccc4ccccc4c3C2(C)C)=[N+](CCC(=O)O)c2ccc3ccccc3c21` [LS747, Cypate-Tyr-Cyclo(DCys-Gly-Arg-Asp-Ser-Pro-Cys)-Lys-OH] (Cypate-Y[dC]GRDSPCK-OH; disulfide 2-8) here?
The value was “rapid loss of retention in tumors”.

With `CC1(C)C(/C=C/C=C/C=C/C=C2/N(CCC(=O)O)c3ccc4ccccc4c3C2(C)C)=[N+](CCC(=O)[O-])c2ccc3ccccc3c21` [cypate] as the compound, how does the “efflux from tumor cells after transfer to new culture medium” value [7] read?
The value was “rapidly effluxes”.

What about the “binding constant (K) to albumin” value [2] of the same compound?
Its value is 556,000 M^−1.

And the “preferential uptake in PDAC relative to uninvolved pancreas” value [8]?
Its value is “not observed”.
